Patent US20230406961A1 (published 2023)

T1: endoglin (CD105) (UniProt P17813 26-586)
T1 chain: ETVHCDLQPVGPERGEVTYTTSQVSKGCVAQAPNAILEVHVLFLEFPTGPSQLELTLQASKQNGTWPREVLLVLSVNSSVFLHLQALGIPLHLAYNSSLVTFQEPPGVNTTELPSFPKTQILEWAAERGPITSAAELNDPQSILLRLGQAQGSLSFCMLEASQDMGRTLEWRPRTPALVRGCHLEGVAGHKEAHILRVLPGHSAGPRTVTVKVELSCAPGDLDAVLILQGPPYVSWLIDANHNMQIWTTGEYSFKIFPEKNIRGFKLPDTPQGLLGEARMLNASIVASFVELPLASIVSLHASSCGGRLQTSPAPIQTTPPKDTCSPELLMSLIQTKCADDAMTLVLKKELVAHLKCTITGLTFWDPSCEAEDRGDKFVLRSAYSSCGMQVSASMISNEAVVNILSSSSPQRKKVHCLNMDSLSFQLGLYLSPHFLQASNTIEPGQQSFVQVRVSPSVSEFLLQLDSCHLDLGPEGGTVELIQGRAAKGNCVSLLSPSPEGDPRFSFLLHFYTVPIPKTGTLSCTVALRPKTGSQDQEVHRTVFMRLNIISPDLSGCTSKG


What was measured:
Test in all cases: SPR (Biacore)
endoglin (CD105) = target: T1, endoglin (CD105)
Endoglin_23 = target: Endoglin_23
Endoglin_10 = target: Endoglin_10

Kd (endoglin (CD105)) [nM]	Kd (Endoglin_23) [nM]	Kd (Endoglin_10) [nM]	Binder
2.44	–	–	endoglin antibody clone Kro22 (humanized AB clone Kro22.2 / Kro22.6) (antibody, V domains shown) VH: QVQLVQSGAEVKKPGASVKVSCKASGYTFTSYWMHWVRQAPGQGLEWIGNIYPGSGSTFYDEKFKGRATLTVDTSISTAYMELSRLRSDDTAVYYCTRRNYVTGFDYWGQGTTVTVSS VL: DIQLTQSPSFLSASVGDRVTITCKSSQSVLYSSNQKNYLAWYQQKPGKAPKLLIYWASTRESGVPSRFSGSGSGTEFTLTISSLQPEDFATYYCHQYLSSYTFGQGTKLEIK
–	64	23.5	Endoglin (receptor) ETVHCDLQPVGPERGEVTYTTSQVSKGCVAQAPNAILEVHVLFLEFPTGPSQLELTLQASKQNGTWPREVLLVLSVNSSVFLHLQALGIPLHLAYNSSLVTFQEPPGVNTTELPSFPKTQILEWAAERGPITSAAELNDPQSILLRLGQAQGSLSFCMLEASQDMGRTLEWRPRTPALVRGCHLEGVAGHKEAHILRVLPGHSAGPRTVTVKVELSCAPGDLDAVLILQGPPYVSWLIDANHNMQIWTTGEYSFKIFPEKNIRGFKLPDTPQGLLGEARMLNASIVASFVELPLASIVSLHASSCGGRLQTSPAPIQTTPPKDTCSPELLMSLIQTKCADDAMTLVLKKELVAHLKCTITGLTFWDPSCEAEDRGDKFVLRSAYSSCGMQVSASMISNEAVVNILSSSSPQRKKVHCLNMDSLSFQLGLYLSPHFLQASNTIEPGQQSFVQVRVSPSVSEFLLQLDSCHLDLGPEGGTVELIQGRAAKGNCVSLLSPSPEGDPRFSFLLHFYTVPIPKTGTLSCTVALRPKTGSQDQEVHRTVFMRLNIISPDLSGCTSKG
